Reference: article PMC10585736, “Analyses of POL30 (PCNA) reveal positional effects in transient repression or bi-modal active/silent state at the sub-telomeres of S. cerevisiae” (Epigenetics & Chromatin, 2023)

Target: T1, Rrm3p-Myc (S. cerevisiae, UniProt P38766 1-723)
T1 construct: Rrm3p DNA helicase, S. cerevisiae; source: expressed from a low copy plasmid in the POL30-0 and mutant pol30 yeast strains, in lysate
T1 sequence (looked up): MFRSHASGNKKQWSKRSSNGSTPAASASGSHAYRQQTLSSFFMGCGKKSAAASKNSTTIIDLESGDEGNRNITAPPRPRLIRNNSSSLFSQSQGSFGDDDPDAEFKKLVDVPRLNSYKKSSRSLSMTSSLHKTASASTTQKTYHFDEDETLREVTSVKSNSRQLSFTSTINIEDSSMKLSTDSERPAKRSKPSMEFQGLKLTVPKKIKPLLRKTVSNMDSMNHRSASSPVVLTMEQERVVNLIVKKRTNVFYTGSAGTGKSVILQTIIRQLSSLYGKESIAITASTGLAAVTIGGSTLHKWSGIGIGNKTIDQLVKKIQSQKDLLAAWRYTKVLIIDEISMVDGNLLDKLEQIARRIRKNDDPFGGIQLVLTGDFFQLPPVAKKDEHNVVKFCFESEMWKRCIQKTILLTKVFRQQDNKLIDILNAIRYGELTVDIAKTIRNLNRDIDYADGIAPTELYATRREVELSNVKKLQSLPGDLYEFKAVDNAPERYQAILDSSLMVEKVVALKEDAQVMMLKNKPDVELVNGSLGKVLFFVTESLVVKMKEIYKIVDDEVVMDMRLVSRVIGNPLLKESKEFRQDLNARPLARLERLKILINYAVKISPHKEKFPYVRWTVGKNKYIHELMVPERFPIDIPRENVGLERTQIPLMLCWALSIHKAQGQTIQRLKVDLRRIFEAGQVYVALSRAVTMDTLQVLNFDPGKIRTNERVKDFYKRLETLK
Assay: co-IP; Cac1p-FLAG and Rrm3p-Myc from low copy plasmids in the POL30-0 and mutant pol30 strains; α-FLAG or α-Myc precipitation from lysate in IP buffer (150 mM NaCl, 50 mM Tris pH 7.5, 2 mM EDTA), washes with 0.2% Triton X100 + 0.01% SDS, elution with FLAG or Myc peptide, blot with α-PCNA
Settings: partners not purified

| Binder | fold reduction of co-precipitated Pol30p against wild-type Pol30p |
| --- | --- |
| pol30-6 mutant Pol30p of the pol30-6 strain (natural protein, S. cerevisiae, UniProt P15873 1-258, looked up, Pol30p (PCNA), S. cerevisiae, double alanine substitutions at Asp 41 and Asp 42; detected with α-PCNA; also called Pol30-6p; source: expressed in the pol30-6 mutant yeast strain, in lysate) MLEAKFEEASLFKRIIDGFKDCVQLVNFQCKEDGIIAQAVAASRVLLVSLEIGVEAFQEYRCDHPVTLGMDLTSLSKILRCGNNTDTLTLIADNTPDSIILLFEDTKKDRIAEYSLKLMDIDADFLKIEELQYDSTLSLPSSEFSKIVRDLSQLSDSINIMITKETIKFVADGDIGSGSVIIKPFVDMEHPETSIKLEMDQPVDLTFGAKYLLDIIKGSSLSDRVGIRLSSEAPALFQFDLKSGFLQFFLAPKFNDEE | 5 fold |
| pol30-8 mutant Pol30p of the pol30-8 strain (natural protein, S. cerevisiae, UniProt P15873 1-258, looked up, Pol30p (PCNA), S. cerevisiae, double alanine substitutions at Arg 61 and Asp 63; detected with α-PCNA; also called Pol30-8p; source: expressed in the pol30-8 mutant yeast strain, in lysate) MLEAKFEEASLFKRIIDGFKDCVQLVNFQCKEDGIIAQAVDDSRVLLVSLEIGVEAFQEYACAHPVTLGMDLTSLSKILRCGNNTDTLTLIADNTPDSIILLFEDTKKDRIAEYSLKLMDIDADFLKIEELQYDSTLSLPSSEFSKIVRDLSQLSDSINIMITKETIKFVADGDIGSGSVIIKPFVDMEHPETSIKLEMDQPVDLTFGAKYLLDIIKGSSLSDRVGIRLSSEAPALFQFDLKSGFLQFFLAPKFNDEE | < 2 fold |
